# According to paper PMC6868009 (Nature Communications, 2019):
# B1: TcdB2 (TcB) of the TcdB2-TccC3 cocoon (natural protein)
# chain: MQNSQDFSITELSLPKGGGAITGMGEALTPTGPDGMAALSLPLPISAGRGYAPAFTLNYNSGAGNSPFGLGWDCNVMTIRRRTHFGVPHYDETDTFLGPEGEVLVVADQPRDESTLQGINLGATFTVTGYRSRLESHFSRLEYWQPKTTGKTDFWLIYSPDGQVHLLGKSPQARISNPSQTTQTAQWLLEASVSSRGEQIYYQYRAEDDTGCEADEITHHLQATAQRYLHIVYYGNRTASETLPGLDGSAPSQADWLFYLVFDYGERSNNLKTPPAFSTTGSWLCRQDRFSRYEYGFEIRTRRLCRQVLMYHHLQALDSKITEHNGPTLVSRLILNYDESAIASTLVFVRRVGHEQDGNVVTLPPLELAYQDFSPRHHAHWQPMDVLANFNAIQRWQLVDLKGEGLPGLLYQDKGAWWYRSAQRLGEIGSDAVTWEKMQPLSVIPSLQSNASLVDINGDGQLDWVITGPGLRGYHSQRPDGSWTRFTPLNALPVEYTHPRAQLADLMGAGLSDLVLIGPKSVRLYANTRDGFAKGKDVVQSGDITLPVPGADPRKLVAFSDVLGSGQAHLVEVSATKVTCWPNLGRGRFGQPITLPGFSQPATEFNPAQVYLADLDGSGPTDLIYVHTNRLDIFLNKSGNGFAEPVTLRFPEGLRFDHTCQLQMADVQGLGVASLILSVPHMSPHHWRCDLTNMKPWLLNEMNNNMGVHHTLRYRSSSQFWLDEKAAALTTGQTPVCYLPFPIHTLWQTETEDEISGNKLVTTLRYARGAWDGREREFRGFGYVEQTDSHQLAQGNAPERTPPALTKNWYATGLPVIDNALSTEYWRDDQAFAGFSPRFTTWQDNKDVPLTPEDDNSRYWFNRALKGQLLRSELYGLDDSTNKHVPYTVTEFRSQVRRLQHTDSRYPVLWSSVVESRNYHYERIASDPQCSQNITLSSDRFGQPLKQLSVQYPRRQQPAINLYPDTLPDKLLANSYDDQQRQLRLTYQQSSWHHLTNNTVRVLGLPDSTRSDIFTYGAENVPAGGLNLELLSDKNSLIADDKPREYLGQQKTAYTDGQNTTPLQTPTRQALIAFTETTVFNQSTLSAFNGSIPSDKLSTTLEQAGYQQTNYLFPRTGEDKVWVAHHGYTDYGTAAQFWRPQKQSNTQLTGKITLIWDANYCVVVQTRDAAGLTTSAKYDWRFLTPVQLTDINDNQHLITLDALGRPITLRFWGTENGKMTGYSSPEKASFSPPSDVNAAIELKKPLPVAQCQVYAPESWMPVLSQKTFNRLAEQDWQKLYNARIITEDGRICTLAYRRWVQSQKAIPQLISLLNNGPRLPPHSLTLTTDRYDHDPEQQIRQQVVFSDGFGRLLQAAARHEAGMARQRNEDGSLIINVQHTENRWAVTGRTEYDNKGQPIRTYQPYFLNDWRYVSNDSARQEKEAYADTHVYDPIGREIKVITAKGWFRRTLFTPWFTVNEDENDTAAEVKKVKM
# Columns and labels:
# [1] = target: Photorhabdus luminescens TcdA1 (TcA) (Photorhabdus luminescens, UniProt Q9RN43 1-2516); experiment: cryo-EM structure; details: both partners purified
# [2] = target: B1; experiment: crystal structure; details: both partners purified
Binder,binding result [1],binding result [2]
B1,binds,
"TccC3 (TcC) of the TcdB2-TccC3 cocoon, without the HVR (domain or fragment) MKNIDPKLYQKTPTVSVYDNRGLIIRNIDFHRTTANGDPDTRITRHQYDIHGHLNQSIDPRLYEAKQTNNTIKPNFLWQYDLTGNPLCTESIDAGRTVTLNDIEGRPLLTVTATGVIQTRQYETSSLPGRLLSVAEQTPEEKTSRITERLIWAGNTEAEKDHNLAGQCVRHYDTAGVTRLESLSLTGTVLSQSSQLLIDTQEANWTGDNETVWQNMLADDIYTTLSTFDATGALLTQTDAKGNIQRLAYDVAGQLNGSWLTLKGQTEQVIIKSLTYSAAGQKLREEHGNDVITEYSYEPETQRLIGIKTRRPSDTKVLQDLRYEYDPVGNVISIRNDAEATRFWHNQKVMPENTYTYDSLYQLISATGREMANIGQQSHQFPSPALPSDNNTYTNYTRTYTYDRGGNLTKIQHSSPATQNNYTTNITVSNRSNRAVLSTLTEDPAQVDALFDAGGHQNTLISGQNLNWNTRGELQQVTLVKRDKGANDDREWYRYSGDGRRMLKINEQQASNNAQTQRVTYLPNLELRLTQNSTATTEDLQVITVGEAGRAQVRVLHWESGKPEDIDNNQLRYSYDNLIGSSQLELDSEGQIISEEEYYPYGGTALWAARNQTEASYKTIRYSGKERDATGLYYYGYRYYQPWIGRWLSSDPAGTIDGLNLYRMVRNNPVTLLDPDGL",,binds
